Laboratory results as given in paper PMC10221750.

What was measured:
[1] = biological target: BG505 SOSIP.664 trimer (HIV-1 isolate BG505 (Clade A)); assay: SPR
[2] = biological target: BG505 SOSIP.664 trimer (HIV-1 isolate BG505 (Clade A))

PGT151 Fab
KD1 (site 1, heterogeneous-ligand model) [1]: < 0.1 nM
KD2 (site 2, heterogeneous-ligand model) [1]: 27 nM
Kd [1]: 2 nM
Sm1 (stoichiometry of site 1, heterogeneous-ligand model) (Fab molecules per trimer) [1]: 1.2
Sm1 + Sm2 (cumulative stoichiometry, heterogeneous-ligand model) (Fab molecules per trimer) [1]: 1.9
Sm2 (stoichiometry of site 2, heterogeneous-ligand model) (Fab molecules per trimer) [1]: 0.7
koff [1]: 0.00018 s⁻¹
koff1 (site 1, heterogeneous-ligand model) [1]: < 1e-05 s⁻¹
koff2 (site 2, heterogeneous-ligand model) [1]: 0.00076 s⁻¹
kon [1]: 87000 M⁻¹ s⁻¹
kon1 (site 1, heterogeneous-ligand model) [1]: 140000 M⁻¹ s⁻¹
kon2 (site 2, heterogeneous-ligand model) [1]: 28000 M⁻¹ s⁻¹
stoichiometry N (Fab molecules per trimer) [1]: 1.9

PGT151 IgG (antibody)
neutralization of BG505 pseudovirus in a TZM-bl assay, IC50 [2]: 0.043 µg/mL
